B1: CHF4 (chimeric antibody of F4) (antibody, human IgG1, kappa, V domains shown)
VH: QVQLKQSGAELVKPGASVKMSCKASGDTFPRYNMHWLKQTPGQGLEWIGAIFPGNGETSYNQNFKGKATLTADKSSSTAYMQLNSLTSEDSAVYYCARNSYYDYAWFTYWGQGTLVTVSA
VL: DIVMTQSPASLDVSLGQRATISCRASKSVSSSGYSFMHWYQQKPGQPPKLLISLASNLESGVPARFSGSGSGTDFTLTIYPVEEEDAATYYCQHSREFPPTFGSGTKLEIKR
notes: Murine variable regions on human IgG1 / human light chain constant regions
B2: CHB1 (chimeric antibody of B1) (antibody, human IgG1, kappa, V domains shown)
VH: QVQMQQSGAELVKPGASVMMSCKASGYTFTTYNIHWIKQTPGQGLEWIGDIYPGNGDASYNQKFRDRATLTADRSSSTAYLQLSSLTSEDSAIYYCATFSRFDGWFAYWGQGTLVTVSA
VL: DIVMSQSPASLAVSLGQRATISCRASRSVSTSGYSYMHWYQQKPGQPPKLLIYLASNLESGVPARFSGSGSGTNFTLNIHPVEEEDAATYYCQHSRELPYTFGGGTKLEIKR
notes: as for B1
B3: huF4027 (antibody, human IgG1, kappa, V domains shown)
VH: EVQLVQSGAEVKKPGSSVKVSCKASGDTFPRYNMHWVRQAPGQGLEWMGAIFPGNGETSYNQNFKGRVTLTADKSTSTAYMELSSLRSEDTAVYYCARNSYYDYAWFTYWGQGTLVTVSS
VL: DIVMTQSPDSLAVSLGERATINCRASKSVSSSGYSFMHWYQQKPGQPPKLLIYLASNLESGVPDRFSGSGSGTDFTLTISSLQAEDVAVYYCQHSREFPPTFGQGTKLEIKR
notes: Humanized IgG1
B4: huB1026 (antibody, human IgG1, kappa, V domains shown)
VH: EVQMVQSGAEVKKPGASVKVSCKASGYTFTTYNIHWVRQAPGQGLEWMGDIYPGNGDASYNQKFRDRVTMTRDTSTSTVYMELSSLRSEDTAVYYCATFSRFDGWFAYWGQGTLVTVSS
VL: B3 VL with K27R, S31T, F36Y, F98L, P100Y, Q104G, L108V
notes: Humanized IgG1
B5: huF4026 (antibody, human IgG1, kappa, V domains shown)
VH: B3 VH with L70I
VL: B3 VL
notes: Humanized IgG1
B6: huF4009 (antibody, human IgG1, kappa, V domains shown)
VH: B3 VH with N55T
VL: B3 VL with S56D
notes: Humanized IgG1
B7: huB1037 (antibody, human IgG1, kappa, V domains shown)
VH: B4 VH with M4L, T98R
VL: B3 VL with T5S, K27R, S31T, F36Y, D74N, F98L, P100Y, Q104G, L108V
notes: Humanized IgG1
B8: huB1038 (antibody, human IgG1, kappa, V domains shown)
VH: B4 VH
VL: B3 VL with T5S, K27R, S31T, F36Y, D74N, F98L, P100Y, Q104G, L108V
notes: Humanized IgG1
B9: huF4028 (antibody, human IgG1, kappa, V domains shown)
VH: B3 VH with V37L, R38K
VL: B3 VL
notes: Humanized IgG1
B10: huF4025 (antibody, human IgG1, kappa, V domains shown)
VH: B3 VH with D27G, P30S, L70I
VL: B3 VL
notes: Humanized IgG1
B11: huB1025 (antibody, human IgG1, kappa, V domains shown)
VH: B4 VH with M4L, T98R
VL: B3 VL with K27R, S31T, F36Y, F98L, P100Y, Q104G, L108V
notes: Humanized IgG1
B12: huB7010 (antibody, human IgG1, kappa, V domains shown)
VH: EIQLVQSGSELKKPGASVKVSCKTSGYTFTNYGMNWVRQAPGQGLEWMGWINTYTGEPTYADEFKGRFVFSLETSVSTAYLQISSLKAEDTAVYYCARGDSFTTEILRNWYFDVWGQGTTVTVSS
VL: DIQMTQSPSSLSASVGDRVTITCGASENIYGALNWYQQKPGKVPKLLIYGATNLADGVPSRFSGSGSGRDYTLTISSLQPEDVATYYCQNVLSTPWTFGGGTKVEIKR
notes: Humanized IgG1
B13: huB7016 (antibody, human IgG1, kappa, V domains shown)
VH: B12 VH
VL: B12 VL with V43S
notes: Humanized IgG1
B14: huB7014 (antibody, human IgG1, kappa, V domains shown)
VH: B12 VH with I2V, T24A, E73D
VL: B12 VL with V43S
notes: Humanized IgG1
B15: huB7012 (antibody, human IgG1, kappa, V domains shown)
VH: B12 VH with E46K, S84N
VL: B12 VL
notes: Humanized IgG1
B16: huB7004 (antibody, human IgG1, kappa, V domains shown)
VH: B12 VH
VL: B12 VL with R69T, Y71F
notes: Humanized IgG1
B17: huB7018 (antibody, human IgG1, kappa, V domains shown)
VH: B12 VH with E46K, S84N
VL: B12 VL with V43S
notes: Humanized IgG1
B18: huB7020 (antibody, human IgG1, kappa, V domains shown)
VH: B12 VH with I2V, T24A, E73D
VL: B12 VL with Q38R, V43S, D70Q
notes: Humanized IgG1
B19: huB7008 (antibody, human IgG1, kappa, V domains shown)
VH: B12 VH with I2V, T24A, E73D
VL: B12 VL
notes: Humanized IgG1
B20: huB7024 (antibody, human IgG1, kappa, V domains shown)
VH: B12 VH with E46K, S84N
VL: B12 VL with Q38R, V43S, D70Q
notes: Humanized IgG1
B21: huB7006 (antibody, human IgG1, kappa, V domains shown)
VH: B12 VH with E46K, S84N
VL: B12 VL with R69T, Y71F
notes: Humanized IgG1
B22: huB7022 (antibody, human IgG1, kappa, V domains shown)
VH: B12 VH
VL: B12 VL with Q38R, V43S, D70Q
notes: Humanized IgG1

Positions count from the first letter of the chain named.

The target of the experiment is T1, His-tagged CD70 protein extracellular domain (His-TNC-CD70) (human).
T1 construct: Expressed in 293 cells; also called human His-TNC-CD70 antigen; human CD70 antigen
T1 chain: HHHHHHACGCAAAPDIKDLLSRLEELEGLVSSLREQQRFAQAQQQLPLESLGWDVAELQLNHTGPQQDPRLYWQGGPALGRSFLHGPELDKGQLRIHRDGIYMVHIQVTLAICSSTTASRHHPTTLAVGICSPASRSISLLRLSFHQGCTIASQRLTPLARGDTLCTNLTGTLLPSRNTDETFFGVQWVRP
The experiment is described as follows: SPR Biacore T200, antibody captured by anti-human Fc, His-TNC-CD70 in flow, 1:1 model. The protocol:
The affinity of the chimeric and humanized antibodies of the present disclosure for the human CD70 antigen was tested using a Biacore instrument. The procedures are as follows:
The human Fc capture molecules were covalently coupled to a CM5 biosensor chip (CAT #BR-1005-30, GE) according to the method described in the instructions of the human Fc capture kit (CAT #BR-1008-39, GE) for affinity capture of the antibodies to be tested. Then, a human His-TNC-CD70 antigen (set forth in SEQ ID NO: 1) flowed through the surface of the chip, and the reaction signal was detected in real time using a Biacore T200 instrument to obtain association and dissociation curves. After the dissociation was completed for each cycle, the biochip was washed and regenerated with a regeneration solution configured in the human antibody capture kit (GE). Data were fitted using a 1:1 model.
Background: SPR reads the build-up and loss of mass on a sensor chip optically.
The Kd is a measure of binding affinity in units of concentration. For orientation: koff means a measure of how fast the partners let go of each other. Higher therefore signals fast dissociation. Broadly, the kon is the rate constant with which the complex forms. Lower therefore signals slower complex formation. B1 had a Kd of 0.0375 nM, an off-rate constant (koff) of 8.37e-05 s⁻¹ and a kon of 2.23e+06 M⁻¹ s⁻¹.

For the molecule B2, the Kd is 0.0334 nM, the koff was 7.54e-05 s⁻¹ and the kon amounted to 2.26e+06 M⁻¹ s⁻¹.

With B3, the Kd was 0.0335 nM, the koff worked out at 9.13e-05 s⁻¹ and the kon was found to be 2.73e+06 M⁻¹ s⁻¹.

As to B4, the Kd worked out at 0.0503 nM, the koff was found to be 9.62e-05 s⁻¹ and the kon was 1.91e+06 M⁻¹ s⁻¹.

In the case of B5, the equilibrium dissociation constant (Kd) worked out at 0.0392 nM, the koff was determined as 9.56e-05 s⁻¹ and the kon worked out at 2.44e+06 M⁻¹ s⁻¹.

For the molecule B6, the Kd is 0.0455 nM, the koff was determined as 0.000114 s⁻¹ and the kon was 2.51e+06 M⁻¹ s⁻¹.

B7: the Kd turned out to be 0.0407 nM, the koff came out at 0.00016 s⁻¹ and the kon is 3.93e+06 M⁻¹ s⁻¹.

In the case of B8, the Kd is 0.0561 nM, the koff was 0.000101 s⁻¹ and the kon came to 1.8e+06 M⁻¹ s⁻¹.

B9 registered a Kd of 0.0412 nM, a koff of 0.000106 s⁻¹ and a kon of 2.56e+06 M⁻¹ s⁻¹.

With B10, the Kd amounted to 0.0403 nM, the koff worked out at 8.68e-05 s⁻¹ and the kon was 2.15e+06 M⁻¹ s⁻¹.

In the case of B11, the equilibrium dissociation constant (Kd) was found to be 0.0462 nM, the koff was 0.000154 s⁻¹ and the kon stood at 3.33e+06 M⁻¹ s⁻¹.

B12 returned a dissociation constant Kd of 0.0396 nM, a koff of 0.000172 s⁻¹ and a kon of 4.36e+06 M⁻¹ s⁻¹.

For the molecule B13, the affinity, expressed as Kd, was 0.0418 nM; the koff was found to be 0.000185 s⁻¹; the kon came out at 4.43e+06 M⁻¹ s⁻¹.

Consider B14, for which the Kd is 0.0371 nM, the koff is 0.000182 s⁻¹ and the kon was 4.92e+06 M⁻¹ s⁻¹.

B15 yielded an equilibrium dissociation constant (Kd) of 0.0257 nM, an off-rate (koff) of 0.000154 s⁻¹ and a kon of 5.99e+06 M⁻¹ s⁻¹.

B16 showed a Kd of 0.0282 nM, a koff of 0.000157 s⁻¹ and a kon of 5.58e+06 M⁻¹ s⁻¹.

Molecule B17 came in with a dissociation constant Kd of 0.0464 nM, a koff of 0.000191 s⁻¹ and an on-rate constant (kon) of 4.12e+06 M⁻¹ s⁻¹.

B18 registered a Kd of 0.0276 nM, a koff of 0.000159 s⁻¹ and a kon of 5.76e+06 M⁻¹ s⁻¹.

B19 gave a Kd of 0.0347 nM, a koff of 0.000169 s⁻¹ and a kon of 4.87e+06 M⁻¹ s⁻¹.

In turn, B20 gave a Kd of 0.0464 nM, a koff of 0.000205 s⁻¹ and a kon of 4.41e+06 M⁻¹ s⁻¹.

B21 gave a Kd of 0.0246 nM, a koff of 0.000158 s⁻¹ and an association rate constant (kon) of 6.41e+06 M⁻¹ s⁻¹.

B22 showed a Kd of 0.0442 nM, an off-rate (koff) of 0.000195 s⁻¹ and a kon of 4.41e+06 M⁻¹ s⁻¹.

Values taken from US20230257472A1 (JIANGSU HENGRUI MEDICINE, published 2023).
